Test results as given in article PMC8832513.

Target: RXFP1 construct pVL-11 (FLAG-eGFP-M82-S707-Avi) (human) (UniProt Q9HBX9)
Assay: SPR; receptor constructs captured via biotinylated Avi-tag on an SA chip (3000-5000 RU), Biacore T200, 20°C; running buffer 20 mM HEPES pH 7.5, 150 mM NaCl, 0.01% BSA, 0.1% DDM, 0.01% CHS; relaxin injected at 0.41-100 nM; kinetic fits; triplicates

Sequence of UniProt Q9HBX9 (Q9HBX9 82-707): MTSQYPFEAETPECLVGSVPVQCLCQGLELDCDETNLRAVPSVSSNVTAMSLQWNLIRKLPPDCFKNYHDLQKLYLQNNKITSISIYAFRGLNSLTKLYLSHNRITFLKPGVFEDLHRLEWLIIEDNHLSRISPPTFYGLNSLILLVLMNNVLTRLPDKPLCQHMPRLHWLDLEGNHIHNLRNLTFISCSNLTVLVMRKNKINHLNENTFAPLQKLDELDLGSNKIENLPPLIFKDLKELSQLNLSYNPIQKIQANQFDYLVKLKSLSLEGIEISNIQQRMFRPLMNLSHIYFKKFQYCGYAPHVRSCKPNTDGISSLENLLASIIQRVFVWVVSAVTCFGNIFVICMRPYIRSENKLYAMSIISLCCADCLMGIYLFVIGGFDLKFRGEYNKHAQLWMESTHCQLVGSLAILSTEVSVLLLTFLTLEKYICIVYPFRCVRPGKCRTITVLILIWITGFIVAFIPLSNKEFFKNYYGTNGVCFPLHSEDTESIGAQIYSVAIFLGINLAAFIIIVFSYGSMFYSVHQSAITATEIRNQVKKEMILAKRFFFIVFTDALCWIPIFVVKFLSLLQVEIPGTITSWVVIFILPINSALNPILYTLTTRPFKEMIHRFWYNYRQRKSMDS

Relaxin H2 (human) (ligand) gave a Kd of 20 nM.
